Reference: US20050107285A1

Assays:
[1] = target: FcγRIIIb receptor on human neutrophils (human) (UniProt O75015); assay: flow cytometry of TNFα-primed human neutrophils with saturating FITC-Leu11b, quantified with Quantum Simply Cellular microbeads
[2] = target: FcγRIIIb receptor on human neutrophils (human) (UniProt O75015); assay: cell-based or functional assay

UniProt O75015, sequence (O75015 17-200): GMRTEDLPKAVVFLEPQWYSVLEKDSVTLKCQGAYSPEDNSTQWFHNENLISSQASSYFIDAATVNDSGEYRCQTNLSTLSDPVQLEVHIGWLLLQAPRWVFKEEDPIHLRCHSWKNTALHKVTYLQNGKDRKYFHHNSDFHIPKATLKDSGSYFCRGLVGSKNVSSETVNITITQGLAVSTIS

| Substance | antibody-binding sites per cell (antibody-binding sites per cell) [1] | respiratory burst (luminol chemiluminescence) of primed neutrophils after PI-PLC depletion of surface FcγRIIIb [2] |
| --- | --- | --- |
| FITC-labelled Leu11b (anti-CD16) (antibody) | 240000 | – |
| insoluble IgG-containing immune complexes (human serum albumin and rabbit anti-HSA antibodies) (from UniProt P02768 25-609) | – | 70 % decrease |
